Test results taken from paper PMC314469, “Protein Interaction Networks by Proteome Peptide Scanning” (PLoS Biology, 2004).

How the values were obtained:
Assay in all cases: SPOT array
[1] = biological target: T1, Boi1 SH3 (BOI1_YEAST), P38041
T1 chain: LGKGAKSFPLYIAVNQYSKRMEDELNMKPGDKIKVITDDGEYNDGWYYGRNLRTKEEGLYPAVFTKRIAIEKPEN

[2] = biological target: T2, Boi2 SH3 (BOI2_YEAST), P39969
T2 chain: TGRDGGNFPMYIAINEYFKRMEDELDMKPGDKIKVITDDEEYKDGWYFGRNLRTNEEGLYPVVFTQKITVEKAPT

[3] = biological target: T3, Myo5 SH3 (MYO5_YEAST), Q04439
T3 chain: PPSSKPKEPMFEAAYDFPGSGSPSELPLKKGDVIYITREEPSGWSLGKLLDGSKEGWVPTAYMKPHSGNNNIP

[4] = biological target: T4, Rvs167 SH3 (RV167_YEAST), P39743
T4 chain: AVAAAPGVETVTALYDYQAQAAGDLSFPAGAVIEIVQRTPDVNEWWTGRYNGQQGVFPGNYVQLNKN

[5] = biological target: Sho1 SH3 (SHO1_YEAST), P40073
Chain of Sho1 SH3 (SHO1_YEAST), P40073 (P40073 295-366): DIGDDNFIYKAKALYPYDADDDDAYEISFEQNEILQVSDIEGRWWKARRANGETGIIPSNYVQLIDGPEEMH

[6] = biological target: T5, Yfr024 SH3 (LSB3_YEAST), P43603
T5 chain: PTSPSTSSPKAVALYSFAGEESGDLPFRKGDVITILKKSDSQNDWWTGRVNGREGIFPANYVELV

[7] = biological target: T6, Yhr016c SH3 (YSC84_YEAST), P32793
T6 chain: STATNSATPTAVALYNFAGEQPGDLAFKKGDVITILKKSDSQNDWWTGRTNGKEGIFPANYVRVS

Binder: TTTIKNRPVPPPLP [YPL140C 79-92]
- normalised SPOT signal, Boehringer light units (BLU); mean over the file's lines of this peptide [1]: 86.4
- normalised SPOT signal, Boehringer light units (BLU); mean over the file's lines of this peptide [2]: 0
- normalised SPOT signal, Boehringer light units (BLU); mean over the file's lines of this peptide [3]: 1870
- normalised SPOT signal, Boehringer light units (BLU); mean over the file's lines of this peptide [4]: 598
- normalised SPOT signal, Boehringer light units (BLU); mean over the file's lines of this peptide [5]: 50.1
- normalised SPOT signal, Boehringer light units (BLU); mean over the file's lines of this peptide [6]: 290
- normalised SPOT signal, Boehringer light units (BLU); mean over the file's lines of this peptide [7]: 32.8

Binder: TTTYKSRPDRPKPV [YBR289W 757-770]
- normalised SPOT signal, Boehringer light units (BLU); mean over the file's lines of this peptide [1]: 607
- normalised SPOT signal, Boehringer light units (BLU); mean over the file's lines of this peptide [2]: 23.7
- normalised SPOT signal, Boehringer light units (BLU); mean over the file's lines of this peptide [3]: 309
- normalised SPOT signal, Boehringer light units (BLU); mean over the file's lines of this peptide [4]: 97.7
- normalised SPOT signal, Boehringer light units (BLU); mean over the file's lines of this peptide [5]: 44.7
- normalised SPOT signal, Boehringer light units (BLU); mean over the file's lines of this peptide [6]: 266
- normalised SPOT signal, Boehringer light units (BLU); mean over the file's lines of this peptide [7]: 68.7

Binder: TVSDRLIPTSPQKT [YGR146C 10-23]
- normalised SPOT signal, Boehringer light units (BLU); mean over the file's lines of this peptide [1]: 50
- normalised SPOT signal, Boehringer light units (BLU); mean over the file's lines of this peptide [2]: 31.8
- normalised SPOT signal, Boehringer light units (BLU); mean over the file's lines of this peptide [3]: 128
- normalised SPOT signal, Boehringer light units (BLU); mean over the file's lines of this peptide [4]: 143
- normalised SPOT signal, Boehringer light units (BLU); mean over the file's lines of this peptide [5]: 60.1
- normalised SPOT signal, Boehringer light units (BLU); mean over the file's lines of this peptide [6]: 76.1
- normalised SPOT signal, Boehringer light units (BLU); mean over the file's lines of this peptide [7]: 13

Binder: TVRTRRRPPPPPIP [YNL094W 462-475]
- normalised SPOT signal, Boehringer light units (BLU); mean over the file's lines of this peptide [1]: 3490
- normalised SPOT signal, Boehringer light units (BLU); mean over the file's lines of this peptide [2]: 12.6
- normalised SPOT signal, Boehringer light units (BLU); mean over the file's lines of this peptide [3]: 46200
- normalised SPOT signal, Boehringer light units (BLU); mean over the file's lines of this peptide [4]: 663
- normalised SPOT signal, Boehringer light units (BLU); mean over the file's lines of this peptide [5]: 95.5
- normalised SPOT signal, Boehringer light units (BLU); mean over the file's lines of this peptide [6]: 891
- normalised SPOT signal, Boehringer light units (BLU); mean over the file's lines of this peptide [7]: 91.7

Binder: TYGFRVRPDFPVFG [YMR295C 130-143]
- normalised SPOT signal, Boehringer light units (BLU); mean over the file's lines of this peptide [1]: 12200
- normalised SPOT signal, Boehringer light units (BLU); mean over the file's lines of this peptide [2]: 69.1
- normalised SPOT signal, Boehringer light units (BLU); mean over the file's lines of this peptide [3]: 357
- normalised SPOT signal, Boehringer light units (BLU); mean over the file's lines of this peptide [4]: 361
- normalised SPOT signal, Boehringer light units (BLU); mean over the file's lines of this peptide [5]: 71.3
- normalised SPOT signal, Boehringer light units (BLU); mean over the file's lines of this peptide [6]: 892
- normalised SPOT signal, Boehringer light units (BLU); mean over the file's lines of this peptide [7]: 134

Binder: TYIWRYLPAPPVSI [YOR116C 255-268]
- normalised SPOT signal, Boehringer light units (BLU); mean over the file's lines of this peptide [1]: 64.5
- normalised SPOT signal, Boehringer light units (BLU); mean over the file's lines of this peptide [2]: 23.6
- normalised SPOT signal, Boehringer light units (BLU); mean over the file's lines of this peptide [3]: 444
- normalised SPOT signal, Boehringer light units (BLU); mean over the file's lines of this peptide [4]: 356
- normalised SPOT signal, Boehringer light units (BLU); mean over the file's lines of this peptide [5]: 657
- normalised SPOT signal, Boehringer light units (BLU); mean over the file's lines of this peptide [6]: 522
- normalised SPOT signal, Boehringer light units (BLU); mean over the file's lines of this peptide [7]: 173

Binder: TYLTRPLPSTPNED [YOL070C 348-361]
- normalised SPOT signal, Boehringer light units (BLU); mean over the file's lines of this peptide [1]: 193
- normalised SPOT signal, Boehringer light units (BLU); mean over the file's lines of this peptide [2]: -0
- normalised SPOT signal, Boehringer light units (BLU); mean over the file's lines of this peptide [3]: 101
- normalised SPOT signal, Boehringer light units (BLU); mean over the file's lines of this peptide [4]: 11900
- normalised SPOT signal, Boehringer light units (BLU); mean over the file's lines of this peptide [5]: 14200
- normalised SPOT signal, Boehringer light units (BLU); mean over the file's lines of this peptide [6]: 20100
- normalised SPOT signal, Boehringer light units (BLU); mean over the file's lines of this peptide [7]: 47100

Binder: VAPNRIPPKVPVIN [YDR466W 429-442]
- normalised SPOT signal, Boehringer light units (BLU); mean over the file's lines of this peptide [1]: 103
- normalised SPOT signal, Boehringer light units (BLU); mean over the file's lines of this peptide [2]: 25
- normalised SPOT signal, Boehringer light units (BLU); mean over the file's lines of this peptide [3]: 61100
- normalised SPOT signal, Boehringer light units (BLU); mean over the file's lines of this peptide [4]: 55.9
- normalised SPOT signal, Boehringer light units (BLU); mean over the file's lines of this peptide [5]: 19.2
- normalised SPOT signal, Boehringer light units (BLU); mean over the file's lines of this peptide [6]: 213
- normalised SPOT signal, Boehringer light units (BLU); mean over the file's lines of this peptide [7]: 17.7

Binder: VSHSKYIPLKPIQD [YGL017W 314-327]
- normalised SPOT signal, Boehringer light units (BLU); mean over the file's lines of this peptide [1]: 138
- normalised SPOT signal, Boehringer light units (BLU); mean over the file's lines of this peptide [2]: 29.9
- normalised SPOT signal, Boehringer light units (BLU); mean over the file's lines of this peptide [3]: 298
- normalised SPOT signal, Boehringer light units (BLU); mean over the file's lines of this peptide [4]: 6.3
- normalised SPOT signal, Boehringer light units (BLU); mean over the file's lines of this peptide [5]: 25.4
- normalised SPOT signal, Boehringer light units (BLU); mean over the file's lines of this peptide [6]: 34.8
- normalised SPOT signal, Boehringer light units (BLU); mean over the file's lines of this peptide [7]: 25.7

Binder: VSTIRSTPSQPIHS [YDR390C 176-189]
- normalised SPOT signal, Boehringer light units (BLU); mean over the file's lines of this peptide [1]: 93.9
- normalised SPOT signal, Boehringer light units (BLU); mean over the file's lines of this peptide [2]: 39.1
- normalised SPOT signal, Boehringer light units (BLU); mean over the file's lines of this peptide [3]: 245
- normalised SPOT signal, Boehringer light units (BLU); mean over the file's lines of this peptide [4]: 68.8
- normalised SPOT signal, Boehringer light units (BLU); mean over the file's lines of this peptide [5]: 59.8
- normalised SPOT signal, Boehringer light units (BLU); mean over the file's lines of this peptide [6]: 177
- normalised SPOT signal, Boehringer light units (BLU); mean over the file's lines of this peptide [7]: 37.4

Binder: VDSFKYEPLAPGND [YLR335W 665-678]
- normalised SPOT signal, Boehringer light units (BLU); mean over the file's lines of this peptide [1]: 0
- normalised SPOT signal, Boehringer light units (BLU); mean over the file's lines of this peptide [2]: 13.5
- normalised SPOT signal, Boehringer light units (BLU); mean over the file's lines of this peptide [3]: 134
- normalised SPOT signal, Boehringer light units (BLU); mean over the file's lines of this peptide [4]: 35.2
- normalised SPOT signal, Boehringer light units (BLU); mean over the file's lines of this peptide [5]: 22.1
- normalised SPOT signal, Boehringer light units (BLU); mean over the file's lines of this peptide [6]: 0
- normalised SPOT signal, Boehringer light units (BLU); mean over the file's lines of this peptide [7]: 15.2

Binder: VEKRKFTPIEPSLL [YPL242C 332-345]
- normalised SPOT signal, Boehringer light units (BLU); mean over the file's lines of this peptide [1]: 594
- normalised SPOT signal, Boehringer light units (BLU); mean over the file's lines of this peptide [2]: 77.3
- normalised SPOT signal, Boehringer light units (BLU); mean over the file's lines of this peptide [3]: 171
- normalised SPOT signal, Boehringer light units (BLU); mean over the file's lines of this peptide [4]: 222
- normalised SPOT signal, Boehringer light units (BLU); mean over the file's lines of this peptide [5]: 35.6
- normalised SPOT signal, Boehringer light units (BLU); mean over the file's lines of this peptide [6]: 179
- normalised SPOT signal, Boehringer light units (BLU); mean over the file's lines of this peptide [7]: 71.2

Binder: VEMKRKKPVRPVDI [YDR436W 385-398]
- normalised SPOT signal, Boehringer light units (BLU); mean over the file's lines of this peptide [1]: 1610
- normalised SPOT signal, Boehringer light units (BLU); mean over the file's lines of this peptide [2]: 48.2
- normalised SPOT signal, Boehringer light units (BLU); mean over the file's lines of this peptide [3]: 472
- normalised SPOT signal, Boehringer light units (BLU); mean over the file's lines of this peptide [4]: 64
- normalised SPOT signal, Boehringer light units (BLU); mean over the file's lines of this peptide [5]: 66.9
- normalised SPOT signal, Boehringer light units (BLU); mean over the file's lines of this peptide [6]: 2590
- normalised SPOT signal, Boehringer light units (BLU); mean over the file's lines of this peptide [7]: 152

Binder: VEVDKKVPVLPMVA [YMR108W 643-656]
- normalised SPOT signal, Boehringer light units (BLU); mean over the file's lines of this peptide [1]: 107
- normalised SPOT signal, Boehringer light units (BLU); mean over the file's lines of this peptide [2]: 31.8
- normalised SPOT signal, Boehringer light units (BLU); mean over the file's lines of this peptide [3]: 130
- normalised SPOT signal, Boehringer light units (BLU); mean over the file's lines of this peptide [4]: 180
- normalised SPOT signal, Boehringer light units (BLU); mean over the file's lines of this peptide [5]: 30.9
- normalised SPOT signal, Boehringer light units (BLU); mean over the file's lines of this peptide [6]: 98.7
- normalised SPOT signal, Boehringer light units (BLU); mean over the file's lines of this peptide [7]: 43.3

Binder: VFVEKSKPTYPGTE [YOL155C 384-397]
- normalised SPOT signal, Boehringer light units (BLU); mean over the file's lines of this peptide [1]: 51.6
- normalised SPOT signal, Boehringer light units (BLU); mean over the file's lines of this peptide [2]: 19.2
- normalised SPOT signal, Boehringer light units (BLU); mean over the file's lines of this peptide [3]: 96.4
- normalised SPOT signal, Boehringer light units (BLU); mean over the file's lines of this peptide [4]: 64.7
- normalised SPOT signal, Boehringer light units (BLU); mean over the file's lines of this peptide [5]: 81
- normalised SPOT signal, Boehringer light units (BLU); mean over the file's lines of this peptide [6]: 0
- normalised SPOT signal, Boehringer light units (BLU); mean over the file's lines of this peptide [7]: 22.1

Binder: VFYHRPAPKPPVTK [YDL028C 400-413]
- normalised SPOT signal, Boehringer light units (BLU); mean over the file's lines of this peptide [1]: 879
- normalised SPOT signal, Boehringer light units (BLU); mean over the file's lines of this peptide [2]: 29.2
- normalised SPOT signal, Boehringer light units (BLU); mean over the file's lines of this peptide [3]: 9050
- normalised SPOT signal, Boehringer light units (BLU); mean over the file's lines of this peptide [4]: 90.2
- normalised SPOT signal, Boehringer light units (BLU); mean over the file's lines of this peptide [5]: 267
- normalised SPOT signal, Boehringer light units (BLU); mean over the file's lines of this peptide [6]: 156
- normalised SPOT signal, Boehringer light units (BLU); mean over the file's lines of this peptide [7]: 95
